This is an account of results in patent US20220282217A1, “COMPOSITIONS AND METHODS FOR PREPARING T CELL COMPOSITIONS AND USES THEREOF” (priority 2019, published 2022).

The first assay has as its target HLA-A24.02 (human). Kind of assay: pMHC-I dissociation half-life, 125I-b2m. Conditions: remark: other sources report otherwise.
MNWRPILTI had a Stability (T1/2 (h)) of 0.2 h.

The next assay has as its target HLA class I molecule A03.01. Kind of assay: pMHC-I dissociation half-life, 125I-b2m. Conditions: remark: other sources report otherwise.
VMAGLGSPYV came in with a Stability (T1/2 (h)) of 0 h.

The molecule VLHECNSLYI came in with a Stability (T1/2 (h)) of 0 h.

The molecule YMFLKAESKI showed a Stability (T1/2 (h)) of 0 h.

In another assay the target is HLA class I molecule A24.02. The assay is described as follows: pMHC-I dissociation half-life, 125I-b2m. Conditions: remark: other sources report otherwise.
Take SLMPAHWSI: the Stability (T1/2 (h)) was 0.4 h.

Regarding LSLMPAHWSI, the Stability (T1/2 (h)) came to 0 h.

In turn, SQIMSLWGL showed a Stability (T1/2 (h)) of 0 h.

The next assay deals with HLA class I molecule A02.01. The assay is described as follows: pMHC-I dissociation half-life, 125I-b2m. Particulars: remark: other sources report otherwise.
In turn, YVMAYVMAG showed a Stability (T1/2 (h)) of 2.5 h.

On to VMAGLGSPYV, for which the Stability (T1/2 (h)) is 2.9 h.

With VLHECNSLYI, the Stability (T1/2 (h)) was 5.1 h.

As to YVMAYVMAGV, the Stability (T1/2 (h)) was determined as 20.9 h.

Consider SLMPAHWSI, for which the Stability (T1/2 (h)) is 5 h.

In turn, YLGNHMNIA yielded a Stability (T1/2 (h)) of 0.6 h.

In turn, SLGNHLCPL showed a Stability (T1/2 (h)) of 3.5 h.

On to YMFLKAESKI, for which the Stability (T1/2 (h)) came out at 0.6 h.

FELLSTPPL returned a Stability (T1/2 (h)) of 0 h.

Molecule LSLMPAHWSI had a Stability (T1/2 (h)) of 0.4 h.

For the molecule SQIMSLWGL, the Stability (T1/2 (h)) was determined as 1 h.

Another assay concerns the target HLA-A01.01 (human). The assay is described as follows: pMHC-I dissociation half-life, 125I-b2m. Particulars: remark: other sources report otherwise.
The molecule WMTETLFDIV displayed a Stability (T1/2 (h)) of 0 h.

MLTDSLFLPI gave a Stability (T1/2 (h)) of 0 h.

A further assay deals with HLA class I molecule B08.01. Kind of assay: pMHC-I dissociation half-life, 125I-b2m. Conditions: remark: other sources report otherwise.
In turn, YVMAYVMAG registered a Stability (T1/2 (h)) of 1.2 h.

The molecule YVMAYVMAGV showed a Stability (T1/2 (h)) of 0 h.

On to SLMPAHWSI, for which the Stability (T1/2 (h)) came out at 0 h.

The molecule YLGNHMNIA showed a Stability (T1/2 (h)) of 0 h.

For SLGNHLCPL, the Stability (T1/2 (h)) worked out at 0.5 h.

YMFLKAESKI gave a Stability (T1/2 (h)) of 0.4 h.

FELLSTPPL came in with a Stability (T1/2 (h)) of 0 h.

The molecule LSLMPAHWSI had a Stability (T1/2 (h)) of 0 h.

SQIMSLWGL displayed a Stability (T1/2 (h)) of 0 h.

Another assay has as its target HLA-A02.01 (human). The assay is described as follows: pMHC-I dissociation half-life, 125I-b2m. Particulars: remark: other sources report otherwise.
WMTETLFDIV gave a Stability (T1/2 (h)) of 0.4 h.

MNWRPILTI had a Stability (T1/2 (h)) of 3.8 h.

MLTDSLFLPI came in with a Stability (T1/2 (h)) of 1 h.

Another assay addresses HLA class I molecule B07.02. Kind of assay: pMHC-I dissociation half-life, 125I-b2m. Particulars: remark: other sources report otherwise.
Molecule YVMAYVMAG showed a Stability (T1/2 (h)) of 0 h.

With YVMAYVMAGV, the Stability (T1/2 (h)) is 0 h.

Take SLMPAHWSI: the Stability (T1/2 (h)) was 0 h.

With SLGNHLCPL, the Stability (T1/2 (h)) is 0 h.

For a further assay, the target named is HLA-B07:02 class I MHC molecule (human). The assay is described as follows: pMHC-I dissociation at 37 C, 125I-labeled b2m, scintillation counts. Conditions: remark: other sources report otherwise.
The molecule MANGSLLNYL returned a Stability (half-life (hr.)) of 0 h.

A further assay addresses HLA-A02:01 class I MHC molecule (human). The description is as above. Conditions: remark: other sources report otherwise.
On to MANGSLLNYL, for which the Stability (half-life (hr.)) turned out to be 0 h.

YMANGSLLN had a Stability (half-life (hr.)) of 0 h.

Another assay addresses HLA-B08.01 (human). Kind of assay: competition with radiolabeled reference peptide, purified MHC I.
Conditions: not given
Molecule LKKLRSPL displayed an IC50 of 0.6 nM.

In another assay the target is T1, HLA-A24.02 class I MHC molecule (prepared complex) (human). The assay is described as follows: displacement of radiolabeled reference peptide from class I MHC, gel filtration; 'Affinity (nM)'. Particulars: remark: other sources report otherwise.
IMQLMPFGCL yielded an IC50 of 14100 nM.

In turn, VQLIMQLMPF returned an IC50 of 4100 nM.

Molecule MQLMPFGCLL registered an IC50 of 18900 nM.

The next assay has as its target T2, HLA-A01.01 class I MHC molecule (prepared complex) (human). The assay is described as above. Conditions: remark: other sources report otherwise.
As to LTSTVQLIM [EGFR, T790M peptide …], the IC50 was 2890 nM.

As to CLTSTVQLIM [EGFR_T790M peptide …, listing 1 of 2 here], the IC50 amounted to 8280 nM.

Another assay addresses T3, HLA-A02.01 class I MHC molecule (prepared complex) (human). The assay is described as above. Particulars: remark: other sources report otherwise.
Molecule IMQLMPFGCL returned an IC50 of 653 nM.

As to VQLIMQLMPF, the IC50 worked out at 4940 nM.

Molecule QLIMQLMPF registered an IC50 of 193 nM.

Molecule MQLMPFGCLL came in with an IC50 of 16.3 nM.

For CLTSTVQLIM [EGFR_T790M peptide …, listing 1 of 2 here], the IC50 turned out to be 537 nM.

For another assay, the target named is HLA-A01.01 (human). Kind of assay: competition vs radiolabeled reference peptide on purified MHC I, gel filtration. Particulars: remark: other sources report otherwise.
As to LTSTVQLIM, the IC50 is 2890 nM.

The target in another assay is HLA-A02.01 (human). The assay is described as above. Particulars: remark: other sources report otherwise.
CLTSTVQLIM […, listing 2 of 2 here] returned an IC50 of 716 nM.

In another assay the target is T1, HLA-A24.02 class I MHC molecule …. The assay is described as follows: dissociation of peptide-MHC-I complex at 37 C, 125I-labelled b2m, scintillation. Conditions: remark: other sources report otherwise.
IMQLMPFGCL gave a Stability (half-life (hr.)) of 0 min.

Molecule VQLIMQLMPF gave a Stability (half-life (hr.)) of 0 min.

QLIMQLMPF returned a Stability (half-life (hr.)) of 22.1 min.

In the case of MQLMPFGCLL, the Stability (half-life (hr.)) came to 0 min.

The target in another assay is T2, HLA-A01.01 class I MHC molecule …. Described as above. Conditions: remark: other sources report otherwise.
In the case of LTSTVQLIM [EGFR, T790M peptide …], the Stability (half-life (hr.)) is 6.22 min.

With CLTSTVQLIM [EGFR_T790M peptide …, listing 1 of 2 here], the Stability (half-life (hr.)) stood at 0 min.

In the next assay the target is T3, HLA-A02.01 class I MHC molecule …. The assay is described as above. Conditions: remark: other sources report otherwise.
For IMQLMPFGCL, the Stability (half-life (hr.)) came to 30.9 min.

Molecule VQLIMQLMPF yielded a Stability (half-life (hr.)) of 0 min.

Consider QLIMQLMPF, for which the Stability (half-life (hr.)) worked out at 20.4 min.

MQLMPFGCLL had a Stability (half-life (hr.)) of 22.9 min.

Molecule CLTSTVQLIM [EGFR_T790M peptide …, listing 1 of 2 here] came in with a Stability (half-life (hr.)) of 0 min.

For the next assay, the target named is HLA-A01.01 (human). Kind of assay: pMHC-I complex dissociation at 37 C, 125I-b2m, half-life. Particulars: remark: other sources report otherwise.
Take CLTSTVQLIM […, listing 2 of 2 here]: the Stability (T1/2 (h)) came out at 0 h.

For the next assay, the target named is HLA-A02.01 (human). The assay is described as above. Conditions: remark: other sources report otherwise.
Regarding CLTSTVQLIM […, listing 2 of 2 here], the Stability (T1/2 (h)) worked out at 0 h.

In the next assay the target is HLA class I molecule A03.01. Kind of assay: competition with radiolabeled reference peptide on purified MHC I. Conditions: remark: other sources report otherwise.
For VMAGLGSPYV, the IC50 was 11200 nM.

Regarding VLHECNSLYI, the IC50 was 10500 nM.

The molecule YMFLKAESKI showed an IC50 of 21100 nM.

Another assay deals with HLA class I molecule A24.02. The assay is described as above. Particulars: remark: other sources report otherwise.
For the molecule SLMPAHWSI, the IC50 is 633 nM.

As for LSLMPAHWSI, the IC50 is 12400 nM.

SQIMSLWGL: the IC50 was determined as 8520 nM.

In another assay the target is HLA class I molecule A02.01. The description is as above. Particulars: remark: other sources report otherwise.
The molecule YVMAYVMAG yielded a half-inhibitory concentration (IC50) of 11500 nM.

The molecule VMAGLGSPYV displayed an IC50 of 102 nM.

Take VLHECNSLYI: the IC50 came out at 10 nM.

YVMAYVMAGV showed an IC50 of 57 nM.

As for SLMPAHWSI, the IC50 worked out at 48 nM.

In the case of YLGNHMNIA, the IC50 worked out at 117 nM.

For the molecule FELLSTPPL, the IC50 was determined as 225 nM.

Molecule LSLMPAHWSI yielded an IC50 of 164 nM.

SQIMSLWGL returned an IC50 of 62 nM.

The target in a further assay is HLA class I molecule B08.01. Described as above. Particulars: remark: other sources report otherwise.
YLGNHMNIA: the IC50 was 872 nM.

On to SLGNHLCPL, for which the IC50 came out at 6 nM.

Take FELLSTPPL: the IC50 was determined as 3180 nM.

The next assay addresses HLA class I molecule B07.02. The description is as above. Particulars: remark: other sources report otherwise.
Consider YVMAYVMAG, for which the IC50 amounted to 170 nM.

As for YVMAYVMAGV, the IC50 was 52600 nM.

For the molecule SLGNHLCPL, the IC50 was found to be 2590 nM.

In the next assay the target is HLA-A24.02 (human). Kind of assay: competition with radiolabeled reference peptide, purified MHC I. Particulars: remark: other sources report otherwise.
Regarding MNWRPILTI, the IC50 came out at 6980 nM.

The next assay deals with HLA-A01.01 (human). The assay is described as above. Particulars: remark: other sources report otherwise.
WMTETLFDIV registered an IC50 of 14400 nM.

In the case of MLTDSLFLPI, the IC50 amounted to 7670 nM.

For the next assay, the target named is HLA-A02.01 (human). Described as above. Conditions: remark: other sources report otherwise.
WMTETLFDIV showed a half-inhibitory concentration (IC50) of 40 nM.

The molecule MNWRPILTI showed an IC50 of 516 nM.

MLLRLNLRKM: the IC50 was found to be 2510 nM.

A further assay concerns the target HLA-A03.01 (human). Described as above. Particulars: remark: other sources report otherwise.
MLLRLNLRKM showed an IC50 of 117 nM.

A further assay deals with HLA-A02:01 class I MHC molecule (human). Kind of assay: competition with a radiolabeled reference peptide for purified MHC I, gel filtration; 'Affinity (nM)'. Particulars: remark: other sources report otherwise.
MANGSLLNYL: the IC50 was 1010 nM.

On to YMANGSLLN, for which the half-inhibitory concentration (IC50) is 4000 nM.
